B1: GST-Mob1A (natural protein, human (cDNA from HeLa), UniProt Q9H8S9 1-216, looked up)
chain: MSFLFSSRSSKTFKPKKNIPEGSHQYELLKHAEATLGSGNLRQAVMLPEGEDLNEWIAVNTVDFFNQINMLYGTITEFCTEASCPVMSAGPRYEYHWADGTNIKKPIKCSAPKYIDYLMTWVQDQLDDETLFPSKIGVPFPKNFMSVAKTILKRLFRVYAHIYHQHFDSVMQLQEEAHLNTSFKHFIFFVQEFNLIDRRELAPLQELIEKLGSKDR
notes: Mob1A; cDNA isolated by PCR from a HeLa cDNA library, cloned into pGEX-6P-1; Vector pGEX-6P-1, BamHI and SalI; also called recombinant Mob1A; source: E. coli, purified by glutathione-agarose beads

How the values were obtained:
MBP-NDR1 wild type = molecular target: T1, MBP-NDR1 wild type (human, UniProt Q15208 1-465); assay: pull-down; GST or GST-fusion protein on agarose beads incubated with purified dissolved MBP-tagged proteins in PBS, 0.1% Triton X-100, 0.5 mM DTT, 4 °C, 3-8 hours; SDS-PAGE, CBB stain; bands quantified by ImageJ for the Mob1A pull-down; conditions: both partners purified
T1 construct: NDR1 kinase, human, full length; cDNA isolated by PCR from a HeLa cDNA library; Vector pMAL-C2x; also called MBP-tagged NDR1; NDR1^WT; source: E. coli, purified by amylose beads, eluted by 10 mM maltose (told for MBP and the MBP-NDR1 mutants)
T1 sequence (Q15208 whole entry, the tested form may be a part): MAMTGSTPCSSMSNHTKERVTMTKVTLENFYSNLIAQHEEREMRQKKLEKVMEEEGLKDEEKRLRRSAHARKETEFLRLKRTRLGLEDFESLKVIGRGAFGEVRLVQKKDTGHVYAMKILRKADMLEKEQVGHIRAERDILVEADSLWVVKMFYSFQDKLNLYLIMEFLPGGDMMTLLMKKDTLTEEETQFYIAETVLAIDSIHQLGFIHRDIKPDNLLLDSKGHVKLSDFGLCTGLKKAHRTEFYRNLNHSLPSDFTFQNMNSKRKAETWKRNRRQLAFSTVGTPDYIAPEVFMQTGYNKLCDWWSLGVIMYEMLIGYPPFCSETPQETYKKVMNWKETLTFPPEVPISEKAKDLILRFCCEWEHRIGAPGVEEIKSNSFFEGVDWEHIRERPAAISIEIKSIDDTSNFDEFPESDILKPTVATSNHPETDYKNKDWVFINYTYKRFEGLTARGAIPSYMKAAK

GST-Mob1A = molecular target: B1; assay: as above; conditions: both partners purified

## B1
MBP-NDR1 wild type
  binding result: binds

B2: MBP-NDR1^3E (enzyme)
chain: not shown
notes: NDR1 kinase, human, full length, phospho-mimicking mutant of the PLK1 sites Thr7, Thr183 and Thr407 (3E); glutamate is read from that name; Mutants were made on the siRNA-resistant NDR1 plasmid; also called phosphomimetic mutant NDR1^3E; source: E. coli, purified dissolved MBP-tagged protein
GST-Mob1A
  percent bound relative to NDR1^WT: < 30%

B3: MBP-NDR1^3A (enzyme)
chain: not shown
notes: NDR1 kinase, human, full length, Thr7, Thr183 and Thr407 mutated to alanines; Mutants were made on the siRNA-resistant (silent changes) NDR1 plasmid; source: E. coli, purified dissolved MBP-tagged protein
GST-Mob1A
  percent retained relative to NDR1^WT: > 90%
